Data reported in PMC4902918, “Production in Pichia pastoris of complementary protein-based polymers with heterodimer-forming WW and PPxY domains” (Microbial Cell Factories, 2016).
Blank lines part the entries; values can stand above or below the binder they belong to. No end group written: not given here. C4^P polymer block = not defined here; O‑glycan = not defined here

Columns and labels:
[1] = biological target: T1, C4^P-D^WW protein polymer (C4^P polymer with a C-terminal WW domain WWP1-1) (human); experiment: ITC; MicroCal VP-ITC, 25 °C, 10 mM sodium phosphate pH 7; 200 uM C4^P-D^WW (1.4 mL) in the cell, 2.9 mM ligand in the syringe, 63 injections of 4 uL; triplicate, Kd values averaged; conditions: both partners purified
[2] = biological target: T1, C4^P-D^WW protein polymer (C4^P polymer …); experiment: other fluorescence titration; steady-state tryptophan fluorescence (excitation 295 nm, emission 340 nm); 500 uL of 10 uM C4^P-D^WW in the cuvette, 500 uM ligand added stepwise up to ~24 uM; 10 mM sodium phosphate pH 7, RT; triplicate, fit on averaged data; conditions: both partners purified

T1 sequence (chain, as listed by the source): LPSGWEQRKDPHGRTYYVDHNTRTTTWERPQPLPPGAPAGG

Kd [1]: 9.3 µM | stoichiometry N [1]: ~0.9 | Kd [2]: 2500 nM
B1: C4^P-D^PPxY protein polymer (C4^P polymer with a C-terminal PPxY proline-rich ligand), O-glycosylated (other)
chain: {C4^P polymer block}-EYPPYPPPPYPS(O‑glycan)GPAGG
modifications: reading uncertain; also: O-glycans heterogeneous, tentatively Man3 to Man7, mostly phosphorylated in diester linkage, minor fraction nonglycosylated

Kd [1]: 9.2 µM | stoichiometry N [1]: ~0.9 | Kd [2]: 2700 nM
B2: C4^P-D^PPxY* protein polymer (Ser12 to Ala mutant of the PPxY module, nonglycosylated) (other)
chain: {C4^P polymer block}-EYPPYPPPPYPAGPAGG
modifications: reading uncertain; also: nonglycosylated
